Measurements as given in IntAct's records for PubMed 26749241.

B1: Succinate dehydrogenase [ubiquinone] iron-sulfur subunit, mitochondrial (Homo sapiens), P21912 (parent)
chain: MAAVVALSLRRRLPATTLGGACLQASRGAQTAAATAPRIKKFAIYRWDPDKAGDKPHMQTYEVDLNKCGPMVLDALIKIKNEVDSTLTFRRSCREGICGSCAMNINGGNTLACTRRIDTNLNKVSKIYPLPHMYVIKDLVPDLSNFYAQYKSIEPYLKKKDESQEGKQQYLQSIEEREKLDGLYECILCACCSTSCPSYWWNGDKYLGPAVLMQAYRWMIDSRDDFTEERLAKLQDPFSLYRCHTIMNCTRTCPKGLNPGKAIAEIKKMMATYKEKKASV
partner: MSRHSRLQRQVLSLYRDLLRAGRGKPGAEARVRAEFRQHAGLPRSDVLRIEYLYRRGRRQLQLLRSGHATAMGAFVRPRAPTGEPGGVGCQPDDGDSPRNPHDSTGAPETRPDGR
B2: Succinate dehydrogenase assembly factor 1, mitochondrial (Homo sapiens), A6NFY7 (parent)
chain: B1 partner
partner: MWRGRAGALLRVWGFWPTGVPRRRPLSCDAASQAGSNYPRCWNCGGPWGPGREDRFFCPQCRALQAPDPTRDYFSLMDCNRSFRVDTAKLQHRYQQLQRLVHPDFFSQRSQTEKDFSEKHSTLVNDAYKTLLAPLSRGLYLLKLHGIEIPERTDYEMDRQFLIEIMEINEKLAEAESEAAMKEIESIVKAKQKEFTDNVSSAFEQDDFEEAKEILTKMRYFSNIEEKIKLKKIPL
B3: Succinate dehydrogenase assembly factor 1, mitochondrial (Homo sapiens), A6NFY7 (parent)
chain: B1 partner
partner: B1 chain

Variants of: B1
Details: with sdhf1_human SDHAF1, A6NFY7

Variant | effect of a mutation on the interaction
MAAVVALSLRRRLPATTLGGACLQASRGAQTAAATAPRIKKFAIYRWDPDKAGDKPHMQTYEVDLNKCGPMVLDALIKIKNEVDSTLTFRRSCREGICGSCAMNINGGNTLACTRRIDTNLNKVSKIYPLPHMYVIKDLVPDLSNFYAQYKSIEPYLKKKDESQEGKQQYLQSIEEAEAAAGLYECILCACCSTSCPSYWWNGDKYLGPAVLMQAYRWMIDSRDDFTEERLAKLQDPFSLYRCHTIMNCTRTCPKGLNPGKAIAEIKKMMATYKEKKASV [R177A;K179A;L180A;D181A] | increasing interaction strength
MAAVVALSLRRRLPATTLGGACLQASRGAQTAAATAPRIKKFAIYRWDPDKAGDKPHMQTYEVDLNKCGPMVLDALIKIKNEVDSTLTFRRSCREGICGSCAMNINGGNTLACTRRIDTNLNKVSKIYPLPHMYVIKDLVPDLSNAAAAAASAEPYLKKKDESQEGKQQYLQSIEEREKLDGLYECILCACCSTSCPSYWWNGDKYLGPAVLMQAYRWMIDSRDDFTEERLAKLQDPFSLYRCHTIMNCTRTCPKGLNPGKAIAEIKKMMATYKEKKASV [F146A;Y147A;Q149A;Y150A;K151A;I153A] | disrupting interaction strength
MAAVVALSLRRRLPATTLGGACLQASRGAQTAAATAPRIKKFAIYRWDPDKAGDKPHMQTYEVDLNKCGPMVLDALIKIKNEVDSTLTFRRSCREGICGSCAMNINGGNTLACTRRIDTNLNKVSKIYPLPHMYVIKDLVPDLSNFYAQYKSIEPYLKKKDESQEGKQQYLQSIEEREKLDGLYECILCACCSTSCPAAAAAGDKYLGPAVLMQAYRWMIDSRDDFTEERLAKLQDPFSLYRCHTIMNCTRTCPKGLNPGKAIAEIKKMMATYKEKKASV [S198A;Y199A;W200A;W201A;N202A] | disrupting interaction strength
MAAVVALSLRRRLPATTLGGACLQASRGAQTAAATAPRIKKFAIYRWDPDKAGDKPHMQTYEVDLNKCGPMVLDALIKIKNEVDSTLTFRRSCREGICGSCAMNINGGNTLACTRRIDTNLNKVSKIYPLPHMYVIKDLVPDLSNFYAQYKSIEPYLKKKDESQEGKQQYAAAIEEREKLDGLYECILCACCSTSCPSYWWNGDKYLGPAVLMQAYRWMIDSRDDFTEERLAKLQDPFSLYRCHTIMNCTRTCPKGLNPGKAIAEIKKMMATYKEKKASV [L171A;Q172A;S173A] | increasing interaction strength
MAAVVALSLRRRLPATTLGGACLQASRGAQTAAATAPRIKKFAIYRWDPDKAGDKPHMQTYEVDLNKCGPMVLDALIKIKNEVDSTLTFRRSCREGICGSCAMNINGGNTLACTRRIDTNLNKVSKIYPLPHMYVIKDLVPDLSNFYAQYKSIEPYLKKKDESQEGKQQYLQSIEEREKLDGAAACILCACCSTSCPSYWWNGDKYLGPAVLMQAYRWMIDSRDDFTEERLAKLQDPFSLYRCHTIMNCTRTCPKGLNPGKAIAEIKKMMATYKEKKASV [L183A;Y184A;E185A] | disrupting interaction strength
MAAVVALSLRRRLPATTLGGACLQASRGAQTAAATAPRIKKFAIYRWDPDKAGDKPHMQTYEVDLNKCGPMVLDALIKIKNEVDSTLTFRRSCREGICGSCAMNINGGNTLACTRRIDTNLNKVSKIYPLPHMYVIKDLVPDLSNAYAQYKSIEPYLKKKDESQEGKQQYLQSIEEREKLDGLYECILCACCSTSCPSYWWNGDKYLGPAVLMQAYRWMIDSRDDFTEERLAKLQDPFSLYRCHTIMNCTRTCPKGLNPGKAIAEIKKMMATYKEKKASV [F146A] | decreasing interaction strength

Variants of: B2
Details: with hsc20_human HSCB

Variant | effect of a mutation on the interaction
MSRHSRLQRQVLSAAADLLRAGRGKPGAEARVRAEFRQHAGLPRSDVLRIEYLYRRGRRQLQLLRSGHATAMGAFVRPRAPTGEPGGVGCQPDDGDSPRNPHDSTGAPETRPDGR [L14A;Y15A;R16A] | disrupting interaction strength
MSRHSRLQRQVLSLYRDLLRAGRGKPGAEARVRAEFRQHAGLPRSDVLRIESLYRDGRRQLQLLRSGHATAMGAFVRPRAPTGEPGGVGCQPDDGDSPRNPHDSTGAPETRPDGR [Y52S;R56D] | decreasing interaction strength
MSRHSRLQRQVLYLYRRLLRAGRGKPGAEARVRAEFRQHAGLPRSDVLRIEYLYRRGRRQLQLLRSGHATAMGAFVRPRAPTGEPGGVGCQPDDGDSPRNPHDSTGAPETRPDGR [S13Y;D17R] | disrupting interaction strength
MSRHSRLQRQVLSLYRDLLRAGRGKPGAEARVRAEFRQHAGLPRSDVLRIEYLYRRRRRQLQLLRSGHATAMGAFVRPRAPTGEPGGVGCQPDDGDSPRNPHDSTGAPETRPDGR [G57R] | with no effect
MSRHSRLQRQVLSLYRDLLRAGRGKPGAEARVRAEFRQHAGLPRSDVLRIEYAAARGRRQLQLLRSGHATAMGAFVRPRAPTGEPGGVGCQPDDGDSPRNPHDSTGAPETRPDGR [L53A;Y54A;R55A] | with no effect
MSRHSRLQRQVLSVFKDLLRAGRGKPGAEARVRAEFRQHAGLPRSDVLRIEYLYRRGRRQLQLLRSGHATAMGAFVRPRAPTGEPGGVGCQPDDGDSPRNPHDSTGAPETRPDGR [L14V;Y15F;R16K] | with no effect
MSRHSRLQRQVLSLYRDLLRAGRGKPGAEARVRAEFRQHAGLPRSDVLRIEYLYPRGRRQLQLLRSGHATAMGAFVRPRAPTGEPGGVGCQPDDGDSPRNPHDSTGAPETRPDGR [R55P] | with no effect

Variants of: B3
Details: with sdhb_human SDHB

Variant | effect of a mutation on the interaction
MSRHSRLQRQVLSLYRDLLRAGRGKPGAEARVRAEFRQHAGLPRSDVLRIEYLYRRGRRQAQLAASGHATAMGAFVRPRAPTGEPGGVGCQPDDGDSPRNPHDSTGAPETRPDGR [L61A;L64A;R65A] | decreasing interaction strength
MSRHSRLQRQVLSLYRDLLRAGRGKPGAEARVRAEFRQHAGLPRSDVLRIEYLYRAAAAQLQLLRSGHATAMGAFVRPRAPTGEPGGVGCQPDDGDSPRNPHDSTGAPETRPDGR [R56A;G57A;R58A;R59A] | decreasing interaction strength
MSRHSRLQRQVLSLYRDLLRAGRGKPGAEARVRAEFRQHAGLPRSDVLRIEYAAAAAAAQLQLLRSGHATAMGAFVRPRAPTGEPGGVGCQPDDGDSPRNPHDSTGAPETRPDGR [L53A;Y54A;R55A;R56A;G57A;R58A;R59A] | disrupting interaction strength
MSRHSRLQRQVLSLYRDLLRAGRGKPGAEARVRAEFRQHAGLPRSDVLRIEYAAARGRRQAQLAASGHATAMGAFVRPRAPTGEPGGVGCQPDDGDSPRNPHDSTGAPETRPDGR [L53A;Y54A;R55A;L61A;L64A;R65A] | disrupting interaction strength

Variants of: B3
Details: with sdhb_human SDHB
Remark: another data set of the same source

Variant | effect of a mutation on the interaction
MSRHSRLQRQVLSLYRDLLRAGRGKPGAEARVRAEFRQHAGLPRSDVLRIEYLYRRRRRQLQLLRSGHATAMGAFVRPRAPTGEPGGVGCQPDDGDSPRNPHDSTGAPETRPDGR [G57R] | disrupting interaction strength
MSRHSRLQRQVLSAAADLLRAGRGKPGAEARVRAEFRQHAGLPRSDVLRIEYLYRRGRRQLQLLRSGHATAMGAFVRPRAPTGEPGGVGCQPDDGDSPRNPHDSTGAPETRPDGR [L14A;Y15A;R16A] | with no effect
MSRHSRLQRQVLSLYRDLLRAGRGKPGAEARVRAEFRQHAGLPRSDVLRIEYAAARGRRQLQLLRSGHATAMGAFVRPRAPTGEPGGVGCQPDDGDSPRNPHDSTGAPETRPDGR [L53A;Y54A;R55A] | decreasing interaction strength
MSRHSRLQRQVLSLYRDLLRAGRGKPGAEARVRAEFRQHAGLPRSDVLRIEYLYPRGRRQLQLLRSGHATAMGAFVRPRAPTGEPGGVGCQPDDGDSPRNPHDSTGAPETRPDGR [R55P] | decreasing interaction strength
